# Where a chain is given by its changes, count along the chain named.
# B1: IL6R-BP179/IL6R-L (antibody, human IgG1)
# heavy: QVQLQESGPGLVKPSETLSLTCAVSGHSISHDHAWSWVRQPPGEGLEWIGFISYSGITNYNPSLQGRVTISRDNSKNTLYLQMNSLRAEDTAVYYCARSLARTTAMDYWGEGTLVTVSSASTKGPSVFPLAPSSKSTSGGTAALGCLVKDYFPEPVTVSWNSGALTSGVHTFPAVLQSSGLYSLSSVVTVPSSSLGTQTYICNVNHKPSNTKVDKKVEPKSCDKTHTCPPCPAPELLGDDSVFLFPPKPKDTLMISRTPEVTCVVVDVSHEDGEVKFNWYVDGVEVHNAKTKPREEQYNSTYRVVSVLTVLHQDWLNGKEYKCKVSNAALPKPIEKTISKAKGQPREPQVYTLPPSRDELTKNQVSLTCLVKGFYPSDIAVEWESNGQPENNYKTTPPVLDSDGSFFLYSKLTVDKSRWQQGNVFSCSVMHEALHNHYTQESLSLSP
# light: DIQMTQSPSSLSASVGDRVTITCRASQDISSYLNWYQQKPGKAPKLLIYYTSRLHSGVPSRFSGSGSGTDFTFTISSLQPEDIATYYCQQGNTLPYTFGQGTKVEIK
# B2: IL6R-BP186/IL6R-L (antibody, human IgG1)
# heavy: B1 heavy with E235D, L236Y, Y298D
# light: B1 light
# B3: IL6R-BP184/IL6R-L (antibody, human IgG1)
# heavy: B1 heavy with E235D, D239G, A328K
# light: B1 light
# B4: IL6R-BP149/IL6R-L (antibody, human IgG1)
# heavy: B1 heavy with E235D, L236Y, G273P, Y298D
# light: B1 light
# B5: IL6R-BP177/IL6R-L (antibody, human IgG1)
# heavy: B1 heavy with E235D, L236Y, A328D
# light: B1 light
# B6: IL6R-BP086/IL6R-L (antibody, human IgG1)
# heavy: B1 heavy with D239G, G273P
# light: B1 light
# B7: IL6R-BP133/IL6R-L (antibody, human IgG1)
# heavy: B1 heavy with E235D, L236Y, D239G, G273P, A328K
# light: B1 light
# B8: IL6R-BP129/IL6R-L (antibody, human IgG1)
# heavy: B1 heavy with E235D, D239G, G273P, Y298D, A328K
# light: B1 light
# B9: IL6R-BP145/IL6R-L (antibody, human IgG1)
# heavy: B1 heavy with L236Y, G273P, A328K, K332A
# light: B1 light
# B10: IL6R-BP089/IL6R-L (antibody, human IgG1)
# heavy: B1 heavy with L236Y, D239G, G273P
# light: B1 light
# B11: IL6R-BP143/IL6R-L (antibody, human IgG1)
# heavy: B1 heavy with L236Y, D239G, G273P, K332A
# light: B1 light
# Molecular target: T1, human FcγRIIa type H (human, UniProt P12318 36-217)
# T1 construct: also called FcgRIIaH; FcγRIIa(H)
# T1 sequence: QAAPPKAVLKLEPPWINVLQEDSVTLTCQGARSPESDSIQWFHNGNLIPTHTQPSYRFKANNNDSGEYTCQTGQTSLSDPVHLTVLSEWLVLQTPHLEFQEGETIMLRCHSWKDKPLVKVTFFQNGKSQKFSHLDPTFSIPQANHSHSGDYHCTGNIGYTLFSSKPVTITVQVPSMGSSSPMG
# Assay: SPR (Biacore), FcγR over captured antibody; binding amount / that of IL6R-BF648/IL6R-L x100
# Protocol: (§1) According to the following method, relative binding activities were calculated for the results of analyzing interactions with the respective FcγRs.
row,Binder,relative binding activity
1,B1,226 % of IL6R-BF648/IL6R-L
2,B2,368 % of IL6R-BF648/IL6R-L
3,B3,131 % of IL6R-BF648/IL6R-L
4,B4,401 % of IL6R-BF648/IL6R-L
5,B5,409 % of IL6R-BF648/IL6R-L
6,B6,116 % of IL6R-BF648/IL6R-L
7,B7,151 % of IL6R-BF648/IL6R-L
8,B8,98 % of IL6R-BF648/IL6R-L
9,B9,224 % of IL6R-BF648/IL6R-L
10,B10,186 % of IL6R-BF648/IL6R-L
11,B11,143 % of IL6R-BF648/IL6R-L

# Molecular target: T2, human FcγRIIb (human, UniProt P31994 43-217)
# T2 construct: also called FcgRIIb; FcγIIB
# T2 sequence: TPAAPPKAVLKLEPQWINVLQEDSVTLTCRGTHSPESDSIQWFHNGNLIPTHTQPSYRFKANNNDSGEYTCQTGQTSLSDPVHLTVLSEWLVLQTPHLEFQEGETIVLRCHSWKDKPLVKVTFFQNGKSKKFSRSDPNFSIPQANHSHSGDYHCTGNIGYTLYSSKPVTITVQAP
# Assay: as above
# Protocol: as §1
row,Binder,relative binding activity
1,B1,177 % of IL6R-BF648/IL6R-L
2,B2,175 % of IL6R-BF648/IL6R-L
3,B3,171 % of IL6R-BF648/IL6R-L
4,B4,173 % of IL6R-BF648/IL6R-L
5,B5,177 % of IL6R-BF648/IL6R-L
6,B6,137 % of IL6R-BF648/IL6R-L
7,B7,137 % of IL6R-BF648/IL6R-L
8,B8,138 % of IL6R-BF648/IL6R-L
9,B9,152 % of IL6R-BF648/IL6R-L
10,B10,147 % of IL6R-BF648/IL6R-L
11,B11,133 % of IL6R-BF648/IL6R-L

# Molecular target: T3, human FcγRIIa type R (human, UniProt P12318 36-217)
# T3 construct: also called FcgRIIaR; FcγRIIa(R)
# T3 chain: T1 sequence with H133R
# Assay: as above
# Protocol: as §1
row,Binder,relative binding activity
1,B1,570 % of IL6R-BF648/IL6R-L
2,B2,614 % of IL6R-BF648/IL6R-L
3,B3,436 % of IL6R-BF648/IL6R-L
4,B4,539 % of IL6R-BF648/IL6R-L
5,B5,691 % of IL6R-BF648/IL6R-L
6,B6,155 % of IL6R-BF648/IL6R-L
7,B7,174 % of IL6R-BF648/IL6R-L
8,B8,111 % of IL6R-BF648/IL6R-L
9,B9,350 % of IL6R-BF648/IL6R-L
10,B10,222 % of IL6R-BF648/IL6R-L
11,B11,238 % of IL6R-BF648/IL6R-L

# Molecular target: T4, human FcγRIIIa type V (human, UniProt P08637 17-208, limits assumed)
# T4 construct: Allotype V158 was used; also called FcgRIIIaV; FcγRIIIa(V)
# T4 sequence (P08637 other isoform, or with tags, fused parts or gaps limits assumed): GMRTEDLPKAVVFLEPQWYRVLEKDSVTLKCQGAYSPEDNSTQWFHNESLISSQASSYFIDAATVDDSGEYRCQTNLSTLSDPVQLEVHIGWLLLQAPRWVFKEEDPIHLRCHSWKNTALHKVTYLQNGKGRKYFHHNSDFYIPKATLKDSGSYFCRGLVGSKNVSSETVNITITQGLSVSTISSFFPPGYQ
# Assay: as above
# Protocol: as §1
row,Binder,relative binding activity
1,B1,125 % of IL6R-BF648/IL6R-L
2,B2,143 % of IL6R-BF648/IL6R-L
3,B3,106 % of IL6R-BF648/IL6R-L
4,B4,186 % of IL6R-BF648/IL6R-L
5,B5,186 % of IL6R-BF648/IL6R-L
6,B6,123 % of IL6R-BF648/IL6R-L
7,B7,114 % of IL6R-BF648/IL6R-L
8,B8,95 % of IL6R-BF648/IL6R-L
9,B9,153 % of IL6R-BF648/IL6R-L
10,B10,136 % of IL6R-BF648/IL6R-L
11,B11,114 % of IL6R-BF648/IL6R-L

# Molecular target: T5, human FcγRIa (human, UniProt P12314 16-292, limits assumed)
# T5 construct: also called FcgRIa; CD64
# T5 sequence (P12314 16-292 limits assumed): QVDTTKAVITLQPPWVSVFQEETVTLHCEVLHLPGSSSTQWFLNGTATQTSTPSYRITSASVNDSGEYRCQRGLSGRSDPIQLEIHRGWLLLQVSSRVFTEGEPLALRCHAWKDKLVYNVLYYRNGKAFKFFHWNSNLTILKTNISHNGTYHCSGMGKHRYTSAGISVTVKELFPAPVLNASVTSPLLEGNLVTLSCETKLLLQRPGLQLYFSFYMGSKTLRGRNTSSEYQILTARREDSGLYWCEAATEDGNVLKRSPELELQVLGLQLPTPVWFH
# Assay: as above
# Protocol: as §1
row,Binder,relative binding activity
1,B1,39 % of IL6R-BF648/IL6R-L
2,B2,43 % of IL6R-BF648/IL6R-L
3,B3,96 % of IL6R-BF648/IL6R-L
4,B4,29 % of IL6R-BF648/IL6R-L
5,B5,57 % of IL6R-BF648/IL6R-L
6,B6,72 % of IL6R-BF648/IL6R-L
7,B7,41 % of IL6R-BF648/IL6R-L
8,B8,68 % of IL6R-BF648/IL6R-L
9,B9,41 % of IL6R-BF648/IL6R-L
10,B10,43 % of IL6R-BF648/IL6R-L
11,B11,86 % of IL6R-BF648/IL6R-L
